Experiment: yeast display, Sf9 membrane polyspecificity reagent, FACS + sequencing; frameworks hold sequencing errors
Procedure, shortened: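 Nanobodies from a synthetic yeast display library (Saccharomyces cerevisiae BJ5465), induced 36–48 hours with galactose, were stained 1 hour at 4 °C with 10% biotinylated, detergent-solubilized Sf9 membrane reagent, enriched on streptavidin microbeads, then FACS-sorted. Anti-HA (expression) and streptavidin (reagent binding) fluorescence set low and high (top ~1%) gates. Polyreactivity labels come from the gate of origin. Genes were colony-PCR amplified, MiSeq 2 × 250 sequenced and filtered by CDR length.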

Sequence	polyreactivity (PSR sort gate)
QDQHVESGGGLLQAGGSLRLTCAAYGSIFTDYAMGWYRQPPGKERELVAAITRIGTRTYYADSVKGRFTISRDNAKNTVYLQMNSLKPEDTAVYYCAASGYSPVRWVWLYYWGQGTQVTVSS	high polyreactivity
QVQLVESGGGLVQAGGSLRLRCAASGNTFGYYTMGWYRQAPAKESELVASIDSGGGTNYADSVKGRFTISRDNAKNTVYLQMNRLKPEDTAVYSCAAASPLYWVDDFESGWRYYYWGQGTQVTVSS	low polyreactivity
QVQLVESGGGLVQAGGSLRLSCAASGRIFYRYAMGWYRQAPGKERELVAAISSGGSTYYADSVKGRFTISRDNAKNTVYLQMNSLKPEDTAVYYCAATWGRGTYYLYYYWGQGTQVTVSS	high polyreactivity
QVQLVESGGGLVQAGGSLRLSCAASGSTFRDYAMGWYRQAPGKERELVAAISNSGGRTYYADSVKGRFTISRDNAKNTVYLQMNSLKPEDTAVYYCNAGRQTKWGQGTQVTVSS	high polyreactivity
QVQLVESGGGLVQAGGSLRLSCAASGRTFGRYAMGWYRQAPGKERELVATISSRGGNTYYADSVKGRFTISRDNAKNTVFLQMNSLKPEDTAVYYCAADVYSSDYDYWGQGTQVNVSS	high polyreactivity
QVQLVESGGGLVQAGGSLRLSCAASGFTFYRYAMGWYRQAPGKERELVAAISTSGGSTYYADSVKGRFTISRDNAKNTVYLQMNSLKPEDTAVYYCAAELLVYYWGYYYELLDYWGQGTQVSVSS	high polyreactivity
QVHLVESGGGLVQAGGSLRLSCAASGRIFRKYAIGWYRQAPGKERELVAAISFSGTSTYYADSVKGRFTISRDNAKNTVYLQMNSLKPEDTAVYYCAAVYRQGTGYVDYDSWGQGTQVTVSS	low polyreactivity
QVQLVESGGGLVQAGGSLRLSCAASGNTFGAYAMGWYRQAPGKERELVAAITWSGGRTYYADSVKGRFTISRDNAKNTVYLQMNSLKPEDTAVYYCAADYGYYRGGVRFGYWGQGTQVTVSS	high polyreactivity
QVQLVESGGGLVQAGGSLRLSCAASGNIYPYYAIGWYRQAPGKERELVAAINAGGGNTYYADSVKGRFTISRDNAKNTVYLQMNSLKPEDTAVYYCAARRVRIYYGSVVWYKYDYWGQGTQVTVSS	high polyreactivity
QVQLVESGGGLVQAGRSLLLICAASGSTFAYYAMGWYRQAPGKERELVAAINYRATRTYYADSVKGRFTISRDNAKNTVYLQMNSLKPDDTAVDYCIAEPAYYRSNRWPRFEYWGQGTQVTVSS	high polyreactivity
QVQLVESGGGLVQAGGSLRLSCAASGSTFYGYAMGWYRQAPGKERELVAVISRSGGGTSYADSVKGRFTISRDNAKNTVYLQMNSLKPEDTAVYYCNAAKYLYRHGFMSAGDMYYWGQGTQVTVSS	high polyreactivity
QVQLVESGGGLVQAGGSLRLSCAASGFTLEFYAMGWYRQAPGKERELVARITTSGGSTRYADSVKGRFTISRDNAKNTVYLQMNSLKPEDTAVYYCPARGYGYRNVQTYGYWGQGTQVTVSS	high polyreactivity
QVQLVESWGGLVHAGGSLRLSCAASGSIFDWYAMGWYRQAPGTERELVAAINEGGGSTYYADSVKGRFTISRDNAKNSVYLQMNSLKPEDTAVYYCAAGDYYLQDNYWGQGTQVTVSS	low polyreactivity
QVQLVESGGGLVQAGGSLRLSCAASGRIFLYYAMGWYRQAPGKERELVAAITRSGGTTYYADSVKGRFTISRDNAKNTVYLQMNSLKPEDTAVYYCAALGQYSRADYEYWGQGTQVTVSS	high polyreactivity
QVQLVESGVGLVQAGGSLRLSCAASGSTFRSNALGWYRQAPGKEREVVAGISSGGGTYYADSVKGRFTISRDNAKNTVYLQMNSLKPEDTAVYYCAKVVYFGWSVQYYYWGQGTQVTVSS	low polyreactivity
QVQLVESGGGLVQAGGSLRLSCAASGSIFIVNVMGWYRQAPGKERELVAGITTNGGITYYADSVKGRFTISRDNAKNTVYLQMNSLKPEDTAVYYCATRSASPSSIEMDYWGQGTQVTVSS	low polyreactivity

Sequence	polyreactivity (PSR sort gate)
HVQLVESAGGLVQARGSLRLSCAASGSIFVTYAMGWYRQARGKERELVATITYSGGSTSYADSVKGRFTISRDNAKITVYLQMNSLKPDDTAVYFCAADLDSDFDYWGQGTQVTVSS	low polyreactivity
QVQLVESGGGLVQAGGSLRLSCAASGSTFRYYTMGWYRQAPGKERELVARISRSGGSTYYADSVKGRFTISRDNAKNTVYLQMNSLKPEDTAVYYCAALYYVKPGQRYDYWGQGTQVTVSS	high polyreactivity
QVQLVESGGGLVQAGGSLRLSCTASGIIFGTYAMGWYRQAPGKERELVAAISSSGVSTYYADSVKGRFTISRDNAKNTVYLQMNSLKPEDTAVYYCAAPLHYGYYYWGQGTQVTVSS	high polyreactivity
QVQLVESGGGLVQAGGSLRISCAASGGIFFQNAMGWYRQAPGKERELVAAISWSAGSTYYADSVKGRFTISRDNAKNSVDLQMNRQKPEDTAVDSCAGRVGCGRAIDLYYYWGQGTQVTVSS	low polyreactivity
QVQLVESAGGLVQAGGSLRLSCAASGRIFRSNAMGWYRQAPGQERELVAAINNRDTSTYADSVKGRFTISRDNAKNTVYLQMNSLKPEDTAVFYCAARYQYYSTYGVTLDYWGQGSQVTVSS	low polyreactivity
QVQLVESGGGLVQAGGSLRLSCAASGRTLYGYAMGWYRQAPGKERELVARITGRDGSTDYADSVKGRFTISRDNAKNTVYLQMNSLKPEDTAVYYCNARVRFHWYRSDYWGQGTQVTVSS	high polyreactivity
QVQLVESGGGLVQAGGSLRLSCAASGLIFPVYVMGWYRQAPGKEREFVAAITWSTSTYYADSVKGRFTISRDNAKNTVYLQMNSLKPEDTAVYYCNARRGWYSPIYYYWGQGTQVTVSS	high polyreactivity
QVHLVDSGGGLVQAGGSLRLSSAASGRIFPFYAMGWYRKAPGKERELVAAITSSGGRTYYADSVKGRFTISRDNAKNTVYLQMNSLKPEDTAVYYCAASLVGPFIYSHLYDYWGQGTQVTVSS	low polyreactivity
QVQLVESGGGLVQAGGSLRLSCAASGRTFYDNAMGWYRQAPGKERELVAVISRSGSTYYADSVKGRFTISRDNAKNTVYLQMNSLKPEDTAVYYCARRGVWGVTYSRLYHWGQGTLVTVSS	high polyreactivity
QVQLVESGGGLVQAGGSLRLSCAASGSTFSSYAMGWYRQAPGKERELVAAITSRGSRTFYADSVKGRFTISRDNAKNTVYLQMNSLKPEDTAVYYCAAYFRIGTFGQYDYWGQGTQVTVSS	high polyreactivity
QVQLVESGGGLVQAGGSLRLICDASGFTFGVYAMGWYRQAPGKETELVAAISTTVGSTYYADSVKGRFTISRDNAKNNVYLQLNRLKPEDTALYYCAAEYTGYLNYYIYEYWGQGTQVTVSS	low polyreactivity
QVQLVESGGGLVQAGGSLRLSCAASGRTFVTYAMGWYRQAPGKERELVATINYSGGSTNYADSVKGRFTISRDNAKNTVYLQMNSLKPEDTAVYYCNTVPRQHRPGDYWGQGTQVTVSS	low polyreactivity
QVQLVESGGGLVQAGGSLRLSCAASGSTLRTYAMGWYRQAPGKERELVAAISFSTTSTYYADSVKGRFTISRDNAKNTVYLQMNSLKPEDTAVYYCAAEYWYYWEYEYWGQGTQVTVSS	high polyreactivity
QVQLVESGGGLVQAGGSLRLSCAASGRTFRYYAMGRSRQAPGTERELVAAISRSGGRTNYADSVKGRFTISRDNAKNTVYLQMNSLIPEDTAVDYCAADFRYTFDSWGQGTQVTVSS	high polyreactivity
QVQLVESGGGLVQAGGSLRLSSAASGSILSYNAMGWYRQAPGKERELVASITGTGRSTRYADSVKGRFTISRDNAKNSVYLQMNSLKPEDTAVYYCATAAWWYYRIYHEFGYWGQGTQVTVSS	high polyreactivity
